Target: the molecule itself
Test: native gel or EMSA + SEC + AUC; free TCF4 and TCF4 with E-box dsDNA; buffer S (20 mM Tris-HCl, 150 mM NaCl, 2 mM TCEP, pH 7.5); SV-AUC at 20 °C, 2.5, 5.0 and 7.5 µM dTCF4, molecular weight fixed at that of the dimer (96.5 kDa); SEC on Superdex 200 Increase 10/300; native PAGE on 5% gel in 0.5 x TBE at 4 °C

B1: Transcription factor 4 (TCF4), human isoform I- (natural protein, UniProt P15884-16 1-451, looked up)
chain: MQDGHHSSDPWSSSSGMNQPGYAGMLGNSSHIPQSSSYCSLHPHERLSYPSHSSADINSSLPPMSTFHRSGTNHYSTSSCTPPANGTDSIMANRGSGAAGSSQTGDALGKALASIYSPDHTNNSFSSNPSTPVGSPPSLSAGTAVWSRNGGQASSSPNYEGPLHSLQSRIEDRLERLDDAIHVLRNHAVGPSTAMPGGHGDMHGIIGPSHNGAMGGLGSGYGTGLLSANRHSLMVGTHREDGVALRGSHSLLPNQVPVPQLPVQSATSPDLNPPQDPYRGMPPGLQGQSVSSGSSEIKSDDEGDENLQDTKSSEDKKLDDDKKDIKSITSNNDDEDLTPEQKAEREKERRMANNARERLRVRDINEAFKELGRMVQLHLKSDKPQTKLLILHQAVAVILSLEQQVRERNLNPKAACLKRREEEKVSSEPPPLSLAGPHPGMGDASNHMGQM
notes: Transcription factor 4 (TCF4), human, isoform I- (UniProt P15884-16), full length; lacks amino acids 1-216 of the canonical isoform B- (P15884-1); bHLH domain at residues 348-401; dimer 96.5 kDa; numbers count on: isoform I- (P15884-16); cDNA synthesised and codon-optimised, cloned into pET-SUMO; also called TCF4 I-; dTCF4 (dimeric TCF4); source: E. coli ArcticExpress, purified (Ni-NTA with 6 M …)
B1: binds.

From publication PMC11948756, “The molecular properties of the bHLH TCF4 protein as an intrinsically disordered hub transcription factor” (Cell Communication and Signaling : CCS, 2025)
